Molecular target: T1, chimeric CNTF receptor (human CNTF receptor expressed in chimeric LIF receptor cell line LIG) in Ba/F3 cell line CNG (Homo sapiens, UniProt P26992+P40189+P42702)
T1 construct: from the 1st to the 372nd amino acid residues; expressed in transfected cells; host or cells: Ba/F3-derived cell line LIG transfected with pCV-CNTFR, clone CNG#203 = CNG
Test: Growth response of chimeric CNTF receptor-expressing Ba/F3 cell line CNG (WST-8)
Format: cell-based
Conditions: 72 hours culture, WST-8 absorbance
From the text: Human CNTF receptor (from the 1st to the 372nd amino acid residues; Davis, S. et al. (1991) Science, 253, 59-63) cDNA was cloned downstream of the HEF1α promoter of a mammalian expression vector, pCV, to construct human CNTF receptor (CNTFR) expression vector, pCV-CNTFR. pCV-CNTFR was linearized with Pvu I (Takara Shuzo), extracted with phenol and chloroform, and purified by ethanol precipitation.
The linearized expression gene vector was introduced into the chimeric LIF receptor-expressing cell line LIG (see section 1-13) using an electroporation apparatus (Gene Pulser: Bio Rad). The LIG cells were washed twice with Dulbecco's PBS (hereinafter referred to as PBS), and then were suspended in PBS to give a cell density of about 1×10^7 cells/mL. […]
The cells were washed twice with Media A, and were suspended in Media A to give a cell density of 5×10^4 cells/mL. […] After the culture, 10 μL/well WST-8 reagent (Cell Count Reagent SF; Nacalai Tesque) was added, and pre-reaction absorbance at a measurement wavelength of 450 nm and a control wavelength of 655 nm was measured using microplate reader (Model 3550, Bio Rad). The plate was incubated for two hours in a CO2 incubator (CO2 concentration, 5%), and post-reaction absorbance was measured as above. […]

T1 sequence (P26992 23-372, change not shown): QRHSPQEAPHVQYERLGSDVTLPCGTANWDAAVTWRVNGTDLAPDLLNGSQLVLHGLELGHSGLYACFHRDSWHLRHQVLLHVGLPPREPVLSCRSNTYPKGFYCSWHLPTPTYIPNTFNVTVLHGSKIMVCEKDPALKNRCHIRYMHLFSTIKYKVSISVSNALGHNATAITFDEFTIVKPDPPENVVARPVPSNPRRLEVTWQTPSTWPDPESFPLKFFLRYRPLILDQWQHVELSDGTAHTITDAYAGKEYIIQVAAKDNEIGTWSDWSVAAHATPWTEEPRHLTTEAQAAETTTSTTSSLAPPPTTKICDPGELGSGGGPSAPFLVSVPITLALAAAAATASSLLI
T1 sequence (P42702 45-833, change not shown): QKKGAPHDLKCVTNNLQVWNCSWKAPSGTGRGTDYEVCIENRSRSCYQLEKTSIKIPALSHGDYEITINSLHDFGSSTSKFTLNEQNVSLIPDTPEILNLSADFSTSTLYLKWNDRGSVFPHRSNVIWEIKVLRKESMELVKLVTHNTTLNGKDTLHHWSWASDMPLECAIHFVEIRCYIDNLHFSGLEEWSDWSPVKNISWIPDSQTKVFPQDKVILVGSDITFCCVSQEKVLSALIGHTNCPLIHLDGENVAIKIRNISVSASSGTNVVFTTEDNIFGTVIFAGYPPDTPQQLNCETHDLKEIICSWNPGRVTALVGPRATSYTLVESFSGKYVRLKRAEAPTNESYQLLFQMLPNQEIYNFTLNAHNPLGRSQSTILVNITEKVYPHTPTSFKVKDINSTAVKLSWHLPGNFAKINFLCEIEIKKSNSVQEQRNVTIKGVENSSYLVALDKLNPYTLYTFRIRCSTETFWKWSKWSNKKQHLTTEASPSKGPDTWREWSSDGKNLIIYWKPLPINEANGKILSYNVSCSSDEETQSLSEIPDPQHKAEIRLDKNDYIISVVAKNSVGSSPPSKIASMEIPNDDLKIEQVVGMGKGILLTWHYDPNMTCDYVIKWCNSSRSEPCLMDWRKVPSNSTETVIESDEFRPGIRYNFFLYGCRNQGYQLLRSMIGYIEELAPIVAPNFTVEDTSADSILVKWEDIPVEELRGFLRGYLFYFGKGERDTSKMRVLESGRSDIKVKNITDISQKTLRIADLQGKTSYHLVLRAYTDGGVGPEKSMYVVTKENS
T1 sequence (P40189 23-619, change not shown): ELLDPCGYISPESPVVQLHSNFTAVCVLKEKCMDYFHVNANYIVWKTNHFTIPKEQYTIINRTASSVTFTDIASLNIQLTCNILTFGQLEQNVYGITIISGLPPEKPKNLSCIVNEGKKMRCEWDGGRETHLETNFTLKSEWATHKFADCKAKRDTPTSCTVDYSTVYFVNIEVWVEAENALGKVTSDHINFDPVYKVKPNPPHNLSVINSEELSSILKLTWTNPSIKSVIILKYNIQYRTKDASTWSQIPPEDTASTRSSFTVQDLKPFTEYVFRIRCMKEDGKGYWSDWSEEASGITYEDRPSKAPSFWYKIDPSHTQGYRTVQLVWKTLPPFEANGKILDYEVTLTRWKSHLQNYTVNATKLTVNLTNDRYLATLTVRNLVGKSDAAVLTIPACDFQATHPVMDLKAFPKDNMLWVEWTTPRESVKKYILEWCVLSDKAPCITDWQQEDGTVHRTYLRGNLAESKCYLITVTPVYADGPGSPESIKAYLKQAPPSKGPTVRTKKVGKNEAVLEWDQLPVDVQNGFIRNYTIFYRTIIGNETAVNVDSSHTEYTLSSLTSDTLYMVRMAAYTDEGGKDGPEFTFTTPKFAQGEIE
T1 sequence (P40223 627-837 partner limits assumed): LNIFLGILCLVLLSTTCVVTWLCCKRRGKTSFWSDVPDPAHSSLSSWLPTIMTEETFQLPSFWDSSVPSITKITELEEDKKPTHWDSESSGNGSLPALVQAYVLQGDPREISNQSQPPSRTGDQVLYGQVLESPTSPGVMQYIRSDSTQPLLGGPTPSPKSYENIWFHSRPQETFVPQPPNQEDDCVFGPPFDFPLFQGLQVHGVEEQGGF

concentration at which an evident growth reaction was observed: ≥ 0.3 ng/mL
B1: human CNTF: human ciliary neurotrophic factor (Genzyme) (protein, UniProt P26441 1-200, looked up)
Ciliary neurotrophic factor: MAFTEHSPLTPHRRDLCSRSIWLARKIRSDLTALTESYVKHQGLNKNINLDSADGMPVASTDQWSELTEAERLQENLQAYRTFHVLLARLLEDQQVHFTPTEGDFHQAIHTLLLQVAAFAYQIEELMILLEYKIPRNEADGMPINVGDGGLFEKKLWGLKVLQELSQWTVRSIHDLRFISSHQTGIPARGSHYIANNKKM

— patent US7732133B2, “Screening methods for biologically active ligands” (Chugai Seiyaku Kabushiki Kaisha, priority 2000, dated 2010)
